The source of these data is US20220403031A1 (WUXI BIOLOGICS IRELAND, published 2022).

One assay addresses Factor VIII. In words: non-specific binding ELISA; antigen coated at 2 ug/mL, antibody at 10 ug/ml. The procedure: (§1) Non-specific binding ELISA was performed in 96-well high binding plates (Nunc-Immuno Plate, Thermo Scientific). The plate was coated with various antigens (as listed in the left column of Table 11) at 2 μg/mL overnight at 4° C. After blocking with 2% BSA-PBS, 10 μg/ml antibodies were added to the plate and incubated for 2 hours. […] The HRP signal was detected by adding TMB peroxidase substrate and the reaction was stopped after 12 minutes using 2M HCl. The absorbance at 450 nm was read using a microplate reader (Molecular Device). All incubation steps were performed at room temperature. The plate was washed with PBST (0.05% Tween20-PBS) between steps.
On the technique in general: In an ELISA, binding on a coated surface is turned into a signal by an enzyme label.

A further assay deals with FGFR.his. The description is as above. The protocol: as §1
Another assay concerns the target CD147.his. Described as above. The procedure:
as §1

The target in a further assay is CTLA4.his. The description is as above. The protocol:
as §1

Another assay addresses T1, W317-hPro1.his.
T1 construct: identity unknown
Described as above. The protocol:
as §1

The target in a further assay is CD22.his. The assay is described as above. The procedure: as §1
For a further assay, the target named is VEGF.his. Described as above. The protocol: as §1
VEGF.his, sequence (P15692 whole entry): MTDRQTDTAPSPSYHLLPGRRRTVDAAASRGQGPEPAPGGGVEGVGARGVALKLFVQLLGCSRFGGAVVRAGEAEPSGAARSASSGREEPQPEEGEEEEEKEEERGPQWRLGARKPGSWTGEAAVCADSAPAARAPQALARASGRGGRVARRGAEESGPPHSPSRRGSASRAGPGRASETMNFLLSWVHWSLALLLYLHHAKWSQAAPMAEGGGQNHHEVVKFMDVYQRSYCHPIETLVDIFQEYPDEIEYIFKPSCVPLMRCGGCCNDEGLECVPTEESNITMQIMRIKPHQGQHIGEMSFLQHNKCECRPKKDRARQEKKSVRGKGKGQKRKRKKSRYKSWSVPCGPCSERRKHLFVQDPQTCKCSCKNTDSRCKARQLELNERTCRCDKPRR
For the next assay, the target named is CD3.his. The description is as above. The protocol: as §1
For a further assay, the target named is CD40. The assay is described as above. The protocol:
as §1

Another assay concerns the target human serum Albumin (human, UniProt P02768 25-609). The description is as above. The procedure:
as §1

For assay [1], the target named is T2, his-tagged human PD-L1 (R&D-9049-B7), hPro1.ECD.His (human, UniProt Q9NZQ7 19-238).
T2 construct: extracellular domain; His tag; also called hPro1.ECD.His (human PD-L1 ECD); human PD-L1 ECD protein (R&D-9049-B7)
T2 sequence (Q9NZQ7 19-238): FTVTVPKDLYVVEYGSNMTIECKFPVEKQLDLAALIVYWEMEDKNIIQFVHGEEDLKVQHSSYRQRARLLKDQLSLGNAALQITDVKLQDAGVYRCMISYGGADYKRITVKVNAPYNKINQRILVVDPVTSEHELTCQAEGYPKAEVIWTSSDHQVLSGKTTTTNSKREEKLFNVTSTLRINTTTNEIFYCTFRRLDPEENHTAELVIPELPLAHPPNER
In words: SPR (ProteOn), antibody captured by anti-human IgG Fc, antigen as analyte, 1:1 model. The procedure:
(§2) Antibodies binding affinities to his-tagged human PD-L1 (R&D-9049-B7), his-tagged cynomolgus PD-L1 (Sino Biological-90251-C08H) and his-tagged mouse PD-L1 (Sino Biological-50010-M08H) were detected by surface plasmon resonance (SPR) assay using the software ProteOn. Testing antibody was captured on anti-human IgG Fc antibody immobilized GLM chip (Bio-rad). The chip was rotated 90° and washed with running buffer until the baseline is stable. hPro1.ECD.His, cynoPro1.ECD.His and mPro1-ECD-His at different concentrations was injected over the sensor chip at a flow rate of 100 uL/min for an association phase of 120 s, followed by 240-800 s dissociation. The chip was regenerated by 10 mM glycine (pH 1.5) following every dissociation phase.
(§3) The sensorgrams for reference channel L1 and buffer channel A6 were subtracted from the test sensorgrams. The experimental data were fitted by 1:1 binding model. Molecular weight of 40 kDa was used to calculate the molar concentration of analyte hPro1.ECD.His (R&D), cynoPro1.ECD.His and mPro1-ECD-His.

The target in assay [2] is T3, his-tagged cynomolgus PD-L1 (Sino Biological-90251-C08H), cynoPro1.ECD.His (cynomolgus, UniProt G7PSE7 19-238).
T3 construct: extracellular domain; His tag; also called cynoPro1.ECD.His (cyno PD-L1 ECD)
T3 sequence (G7PSE7 entry or part of it C08H C08H): as the sequence (Q9NZQ7 19-238) above, with A33T, A34S, S62N, R68Q, Q82R, F173L, T185A, T192I, H215L counted along it
Described as above. The protocol:
as §2, §3

In assay [3] the target is T4, his-tagged mouse PD-L1 (Sino Biological-50010-M08H), mPro1-ECD-His (mouse, UniProt Q9EP73 19-239).
T4 construct: extracellular domain; His tag; also called mPro1-ECD-His (mouse PD-L1 ECD)
T4 sequence (Q9EP73 19-239, stated change not applied): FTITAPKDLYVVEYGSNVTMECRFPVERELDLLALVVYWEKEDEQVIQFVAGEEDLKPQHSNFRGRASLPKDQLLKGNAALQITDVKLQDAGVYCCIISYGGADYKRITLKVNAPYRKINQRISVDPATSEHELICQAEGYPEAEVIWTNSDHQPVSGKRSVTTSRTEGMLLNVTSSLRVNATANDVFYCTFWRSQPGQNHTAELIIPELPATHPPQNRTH
The description is as above. The protocol:
as §2, §3

CTLA4.his, sequence (P16410 36-161): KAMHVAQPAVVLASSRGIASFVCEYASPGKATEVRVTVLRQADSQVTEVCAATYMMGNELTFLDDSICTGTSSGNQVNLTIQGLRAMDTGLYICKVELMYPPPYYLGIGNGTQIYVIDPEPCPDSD
CD40, sequence (P25942 21-193): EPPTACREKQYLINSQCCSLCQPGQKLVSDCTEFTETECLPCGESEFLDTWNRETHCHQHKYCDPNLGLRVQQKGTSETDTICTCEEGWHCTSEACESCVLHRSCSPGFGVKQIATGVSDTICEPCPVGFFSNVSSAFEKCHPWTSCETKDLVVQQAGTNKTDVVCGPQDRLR

B1: AP3R2-1A3-z12-hIgG4 (Fc fusion)
chain: EVQLVESGGGLVQPGGSLRLSCAASGHFSNLAVNWFRQAPGKERELVAGILWSGGSTFYADSVKGRFTISRGNAENMLYLQMNSLRAEDTAVYYCNTGTNWGQGTLVTVSS
notes: VHH-Fc (hIgG4) fusion of the humanized VHH; also called W3156-AP3R2-1A3-z12-hIgG4; W3156 antibody; not shown: Fc of human IgG4
By Kd is commonly meant a measure of binding affinity in units of concentration. As a reminder, the koff is a measure of how fast the partners let go of each other. The low end stands for slow dissociation, the high end for fast dissociation. Broadly, the kon is the rate constant with which the complex forms. Lower therefore signals slow association. Take B1: the “Absorbance at 450 nm” value with Factor VIII was determined as 0.06; in the assay with FGFR.his, 0.14; with CD147.his, 0.07; in the assay with CTLA4.his, 0.08; with W317-hPro1.his it was 0.06; in the assay with CD22.his, 0.06. The “Absorbance at 450 nm” value in the assay with VEGF.his is 0.09; with CD3.his, 0.07; with CD40, 0.25; with human serum Albumin it was 0.42. Also, the figures for the Kd in assay [1], in assay [2] and in assay [3] were 0.208 nM, 0.251 nM and 19.4 nM, respectively. Besides, the dissociation rate constant (koff) in [1] worked out at 0.000385 s⁻¹; in assay [2], 0.000478 s⁻¹; in assay [3] it was 0.0114 s⁻¹. Besides, the values for the association rate constant (kon) in [1], in [2] and in [3] were 1.85e+06 M⁻¹ s⁻¹, 1.91e+06 M⁻¹ s⁻¹ and 589000 M⁻¹ s⁻¹, respectively.
